Here are results for 13 molecules from patent publication US20250243277A1 (AVACTA LIFE SCIENCES, published 2025).

The target in one assay is papain (UniProt P00784). As to the kind of experiment: cell-based or functional assay.
Assay [1] concerns the target T1, human PD-L1-Fc (R&D Systems) (human, UniProt Q9NZQ7 19-239).
T1 construct: Bought from R&D Systems; Biotinylated in-house for the phage selection; also called huPD-L1-Fc; human PD-L1-Fc antigen; not shown: Fc part of the bought fusion
As to the kind of experiment: PD-L1/PD-1 competition ELISA, % inhibition: Affimer pre-incubated with huPD-L1-Fc, then loaded on plate-coated human PD-1-Fc (blocked ligand). Column head on the sheet reads 'EC50nM'; the text calls these values IC50. The procedure:
(§1) The competitive inhibition of AFFIMER® multimers was evaluated by enzyme linked immunosorbent assay (ELISA). Human PD-1-Fc (R&D Systems) was coated at 0.5 μg/ml on the plate. Plates were washed two times with […] of washing buffer (PBS, Tween 20 0.1%) with a plate washer and saturated with Casein 5% (Sigma) in PBS for 90 minutes at room temperature (25±1° C.). Plates were subsequently washed. AFFIMER® polypeptides and controls (human PD-1-Fc; R&D Systems or blank) were then diluted in duplicate, and preincubated with huPD-L1-Fc (R&D Systems) at a predefined concentration equivalent to the EC₈₀ for 30 minutes then loaded on the plate for 90 minutes at room temperature (25±1° C.). Plates were washed 3 times. Biotinylated polyclonal antibody anti-human PD-L1 (R&D Systems) was then diluted in dilution buffer and incubated 90 minutes at room temperature (25±1° C.). Plates were washed 3 times and Streptavidin HRP was incubated for 30 minutes at room temperature (25±1° C.). Plates were washed and the substrate (TMB; Pierce Thermo-Scientific) added to the plate for 10 minutes. The reaction was stopped using an acidic solution and plates were read at absorbance 450-630 nm. The IC₅₀ was then calculated using the interpolated non-linear four-parameter standard curve.
A general note: ELISA stands for enzyme-linked immunosorbent assay.

The target in assay [2] is T1, human PD-L1-Fc (R&D Systems). In words: SPR (Biacore T200): human PD-L1-Fc amine-coupled on a CM5 chip, Affimer monomer titrated as analyte, 1:1 Langmuir fit. The procedure: (§2) BIACORE™ T200 binding kinetic analysis was performed on monomer AFFIMER® clones with running buffer HBS-EP+ (Cytiva) and a series S sensor CM5 chip immobilized with human PD-L1-Fc (R&D Systems) in 10 mM Sodium acetate pH4.0 μsing amine coupling reagents (Cytiva). A concentration titration of AFFIMER® monomer was run as analyte with an association time of 150 seconds, followed by a dissociation time of 300 seconds at a flow rate of 30 μl/min. For Clone 80, the association time was increased to 500 seconds and 1000 seconds dissociation time. The human PD-L1-Fc immobilized surface was regenerated with 3-3.5 mM NaOH solution (Cytiva) for 20-30 seconds at 20 μl/min flow rate. The kinetic data was blank subtracted and fit to a 1:1 Langmuir binding model (BIAcore evaluation software; Cytiva) to calculate an apparent KD value.
A general note: Surface plasmon resonance follows binding to a sensor surface in real time, without labels.

Assay [3] addresses T2, human PD-L1 on CHO cells (human, UniProt Q9NZQ7 19-290). In words: cell-based or functional assay.
Assay [4] has as its target T2, human PD-L1 on CHO cells. As to the kind of experiment: cell-based or functional assay. This is another data set of the same source.
Assay [5] addresses T2, human PD-L1 on CHO cells. As to the kind of experiment: flow cytometry histogram, live-gated hu-PD-L1 CHO cells, Affimer at 100 nM. The procedure:
Human PD-L1 CHO cells having a cell surface over expressing human PD-L1 or CHO-negative cells were plated at 50,000 cells per well in a round bottom tissue culture plate. AFFIMER® clones were titrated from 700 nM or monoclonal antibody (mAb) controls titrated from 10 nM in cell staining buffer (PBS, 1% BSA+2 mM EDTA+0.05% Sodium Azide buffer) and incubated for 1 hour. After two washes with staining buffer, AFFIMER® polypeptides were detected with an anti-cystatin antibody. After a further two washes, AF488-conjugated anti-goat antibody (to detect AFFIMER® polypeptides) or AF488-conjugated anti human IgG1 antibody (to detect mAb controls) were incubated for 40 minutes followed by an additional wash step. Viability dye (Zombie Aqua reagent, Biolegend) was added and the plates were incubated for 10 min. After a final wash, cells were fixed and the data acquired using a multiparameter flow cytometer (Guava 12HT, Luminex Corp).
On the technique in general: In flow cytometry, cells or beads pass a laser one at a time.

Assay [6] addresses T1, human PD-L1-Fc (R&D Systems). In words: PD-1/PD-L1 competition ELISA, % inhibition: Affimer pre-incubated with huPD-L1-Fc, then loaded on plate-coated human PD-1-Fc (blocked ligand). As to the method:
as §1, with “curve. […]” for “curve.”

Assay [7] shares this target. As to the kind of experiment: SPR (Biacore T200): human PD-L1-Fc amine-coupled on a CM5 chip, Affimer monomer titrated as analyte (500 s association, 1000 s dissociation), 1:1 Langmuir fit. As to the method:
as §2

Assay [8] has the same target. As to the kind of experiment: PD-1/PD-L1 competitive ELISA, average n = 2; competitor PD-1-Fc coated. As to the method: as §1
Analysis identified three mutants which no longer bind target antigen, three mutants which have reduced binding and twelve (12) mutants which retaining binding to target antigen. […] The mutant AFFIMER® clones which retained binding to PD-L1 were assessed in both a competition ELISA (as described in Example 4) and the PD1:PD-L1 blockade cell-based Promega assay (as described in Example 5).

Assay [9] shares this target. As to the kind of experiment: SPR (Biacore 8K), binding to PD-L1-Fc.
The target of assay [10] is T2, human PD-L1 on CHO cells. In words: cell-based or functional assay. This is another data set of the same source.
Assay [11] addresses T2, human PD-L1 on CHO cells. In words: cell-based or functional assay. This is another data set of the same source.
Assay [12] has as its target T2, human PD-L1 on CHO cells. In words: cell-based or functional assay. This is another data set of the same source.
The target in assay [13] is T2, human PD-L1 on CHO cells. In words: cell-based or functional assay. This is another data set of the same source.
For assay [14], the target named is T2, human PD-L1 on CHO cells. In words: cell-based or functional assay. The source holds these as a separate data set.

Residue numbers refer to the chain shown, from its start. Like-named read-outs stand apart in the source and are kept apart here.

T1 sequence (Q9NZQ7 19-239 limits assumed): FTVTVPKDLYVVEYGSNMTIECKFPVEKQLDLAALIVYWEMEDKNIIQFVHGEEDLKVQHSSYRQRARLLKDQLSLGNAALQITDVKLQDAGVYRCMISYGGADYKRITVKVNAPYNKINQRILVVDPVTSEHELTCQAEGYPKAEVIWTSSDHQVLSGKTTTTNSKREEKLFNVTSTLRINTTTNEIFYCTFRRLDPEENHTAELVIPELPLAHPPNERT
T2 sequence (Q9NZQ7 19-290): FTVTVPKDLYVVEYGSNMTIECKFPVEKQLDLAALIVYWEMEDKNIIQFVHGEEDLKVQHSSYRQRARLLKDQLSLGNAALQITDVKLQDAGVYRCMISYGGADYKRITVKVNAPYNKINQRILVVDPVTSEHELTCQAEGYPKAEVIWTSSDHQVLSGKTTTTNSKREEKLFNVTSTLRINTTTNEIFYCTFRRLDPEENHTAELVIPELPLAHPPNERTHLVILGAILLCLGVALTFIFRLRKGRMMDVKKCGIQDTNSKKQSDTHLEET
Chain of papain (P00784 134-345 limits assumed): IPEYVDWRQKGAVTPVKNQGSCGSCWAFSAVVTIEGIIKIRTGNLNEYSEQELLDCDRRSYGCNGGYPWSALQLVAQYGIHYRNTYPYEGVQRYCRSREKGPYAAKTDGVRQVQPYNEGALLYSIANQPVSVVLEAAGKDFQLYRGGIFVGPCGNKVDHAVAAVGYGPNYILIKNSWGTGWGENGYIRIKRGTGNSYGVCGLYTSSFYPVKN

In turn, Stefin A (from UniProt P01040 1-98) displayed an IC50, inhibition of papain cleavage of Z-Phe-Arg-AMC with papain of 3.8 nM.

B1: Clone 52 (designed binder)
chain: MIPGGLSEAKPATPEIQEIVDKVKPQLEEKTGETYGKLEAVQYKTQVVGIREDWNWSGTNYYIKVRAGDNKYMHLKVFKSLFEPKKLEPAEDLVLTGYQVDKNKDDELTGF
notes: His-tagged
In the case of B1, the response in assay [1] was half-maximal at 197 nM (EC50).

B2: Clone 54 (designed binder)
chain: MIPGGLSEAKPATPEIQEIVDKVKPQLEEKTGETYGKLEAVQYKTQVVINQQQIKHSGTNYYIKVRAGDNKYMHLKVFKSLWQHIPPDFWEDLVLTGYQVDKNKDDELTGF
notes: type III Affimer monomer; His-tagged
For the molecule B2, the response in assay [1] was half-maximal at 16.9 nM (EC50). Besides, in assay [2], the Kd came out at 45.6 nM, the koff stood at 0.0909 s⁻¹ and the kon was 1.99e+06 M⁻¹ s⁻¹.

B3: Clone 80 (designed binder)
chain: MIPGGLSEAKPATPEIQEIVDKVKPQLEEKTGETYGKLEAVQYKTQVVRRKHFPQWPGTNYYIKVRAGDNKYMHLKVFKSLDLQPREVFQEDLVLTGYQVDKNKDDELTGF
notes: type III Affimer monomer made in E. coli; His-tagged; also called Clone 80 parent control molecule
As to B3, the “EC50 (read off the curve); Promega PD-1/PD-L1 blockade bioassay, fold of induction” value (“EC50 (read off the curve) … fold of induction” below) with human PD-L1 on CHO cells [3] was about 80 nM. Also, the EC50 in assay [1] came to 0.538 nM. Also, the “IC50, PD-1/PD-L1 blockade Bioassay (Promega)” value in the assay with human PD-L1 on CHO cells [4] turned out to be 30 nM. Moreover, in the assay with human PD-L1 on CHO cells [5], the “% (cells in the positive gate)” value amounted to 98.9% and the MFI was 1330 MFI. The molecule also displayed an IC50 in [6] of 0.19 nM. In assay [7], this molecule gave a dissociation constant (Kd) of 0.568 nM, a koff of 0.00163 s⁻¹ and a kon of 2.88e+06 M⁻¹ s⁻¹. The IC50 in assay [8] turned out to be 2.6 nM.

B4: Clone 80 R49A (designed binder)
chain: B3 chain with R49A
notes: alanine mutant of Clone 80 made in E. coli
Take B4: the “EC50 (read off the curve) … fold of induction” value with human PD-L1 on CHO cells [3] was about 200 nM. The Kd in assay [9] stood at 2 nM. Further, the IC50 in [8] amounted to 4.83 nM.

B5: Clone 80 V88A (designed binder)
chain: B3 chain with V88A
notes: as for B4
With B5, the Kd in assay [9] worked out at 1.96 nM. In the assay with human PD-L1 on CHO cells [10], the “EC50 (read off the curve) … fold of induction” value was about 100 nM. Also, the IC50 in assay [8] is 2.56 nM.

B6: Clone 80 E87A (designed binder)
chain: B3 chain with E87A
notes: as for B4
B6: the Kd in assay [9] came out at 0.61 nM. The “EC50 (read off the curve) … fold of induction” value in the assay with human PD-L1 on CHO cells [11] is about 100 nM. In [8], this molecule registered a half-maximal inhibitory concentration (IC50) of 3.83 nM.

B7: Clone 80 K51A (designed binder)
chain: B3 chain with K51A
notes: as for B4
Turning to B7, the Kd in [9] amounted to 0.66 nM. For the same molecule, the “EC50 (read off the curve) … fold of induction” value in the assay with human PD-L1 on CHO cells [12] was about 200 nM. In [8], this molecule had an IC50 of 3.35 nM.

B8: Clone 80 Q90A (designed binder)
chain: B3 chain with Q90A
notes: as for B4
Regarding B8, in [9], the affinity, expressed as Kd, was 0.97 nM. Further, the “EC50 (read off the curve) … fold of induction” value with human PD-L1 on CHO cells [13] is about 100 nM. In [8], this molecule displayed an IC50 of 2.23 nM.

B9: Clone 80 R86A (designed binder)
chain: B3 chain with R86A
notes: as for B4
Molecule B9 gave a Kd in [9] of 4.02 nM. In addition, the “EC50 (read off the curve) … fold of induction” value with human PD-L1 on CHO cells [14] is about 70 nM. The molecule also had a 50% inhibitory concentration (IC50) in assay [8] of 2.33 nM.

B10: Clone 256 (designed binder)
chain: MIPRGLSEAKPATPEIQEIVDKVKPQLEEKTNETYGKLEAVQYKTQVLAKEHGPDSWWSTNYYIKVRAGDNKYMHLKVFNGPQEKNQWVEEADRVLTGYQVDKNKDDELTGF
notes: type I Affimer monomer
For the molecule B10, the response in assay [1] was half-maximal at 8.55 nM (EC50). In addition, in the assay with human PD-L1 on CHO cells [5], the “% (cells in the positive gate)” value came to 98.1% and the MFI amounted to 1240 MFI.

B11: Clone 255 (designed binder)
chain: MIPRGLSEAKPATPEIQEIVDKVKPQLEEKTNETYGKLEAVQYKTQVLAREGRQDWVLSTNYYIKVRAGDNKYMHLKVFNGPWVPFPHQQLADRVLTGYQVDKNKDDELTGF
notes: type I Affimer monomer
With B11, in assay [1], the EC50 came out at 0.205 nM. Further, the “IC50, PD-1/PD-L1 blockade Bioassay (Promega)” value in the assay with human PD-L1 on CHO cells [4] was found to be 30 nM. In the assay with human PD-L1 on CHO cells [5], the “% (cells in the positive gate)” value was 98% and the MFI came to 1010 MFI.

B12: Clone 58 (designed binder)
chain: MIPGGLSEAKPATPEIQEIVDKVKPQLEEKTGETYGKLEAVQYKTQVVKQLIIWHWTGTNYYIKVRAGDNKYMHLKVFKSLFKNSNSHLEEDLVLTGYQVDKNKDDELTGF
notes: His-tagged
B12 showed a concentration for a half-maximal effect (EC50) in [1] of 69.9 nM.

One may read the EC50 as the midpoint of the concentration-response curve. By Kd is commonly meant the free concentration of one partner at which half of the binding sites on the other are occupied at equilibrium, for simple one-to-one binding. One may read the koff as the first-order rate constant of dissociation. Usually kon stands for a measure of how fast the partners come together. Higher therefore signals faster complex formation. For orientation: IC50 means the concentration needed to halve the response being measured. Higher therefore signals lower potency.
